Patent US20210230286A1 (published 2021)
Where no end group is shown, it is not given here.

Target: T1, PD-L1 protein (human, UniProt Q9NZQ7 19-238, limits assumed)
T1 construct: Plate-coated recombinant protein; also called human PD-L1 protein
Assay: ELISA: PD-L1 coated at 2 ug/ml, FITC-labelled PPLC titrated, HRP anti-FITC detection, OD 410 nm
Procedure: A 96-well ELISA plate was coated with 2μg/ml PD-L1 protein at 4° C. overnight. […] After incubation, HRP-conjugated anti-FITC antibody was added, incubated for 1 h, and then ABTS coloring solution was added. The OD value at 410 nm was measured using a M5 microplate reader, and GraphPad Prism 6 was used for plotting and analysis.

T1 sequence (Q9NZQ7 19-238 limits assumed): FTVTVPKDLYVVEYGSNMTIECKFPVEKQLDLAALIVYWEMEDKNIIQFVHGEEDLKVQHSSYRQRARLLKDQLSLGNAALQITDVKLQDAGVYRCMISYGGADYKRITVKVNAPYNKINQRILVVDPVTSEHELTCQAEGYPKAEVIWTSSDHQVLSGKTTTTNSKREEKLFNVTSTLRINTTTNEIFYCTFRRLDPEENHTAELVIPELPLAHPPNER

Kd: 750 nM
B1: PPLC peptide labeled with FITC (peptide)
peptide: VSVSHFQKVWVV
modifications: also: FITC label, attachment not given here
notes: Chemically synthesized peptide; The FITC-labelled form was used in the direct ELISA, flow cytometry and confocal assays; also called FITC-labeled PPLC
